Results from IntAct's records for PubMed 29039417.

B1: BBSome complex member BBS5 (Homo sapiens), Q8N3I7 (parent)
chain: MSVLDALWEDRDVRFDLSAQQMKTRPGEVLIDCLDSIEDTKGNNGDRGRLLVTNLRILWHSLALSRVNVSVGYNCILNITTRTANSKLRGQTEALYILTKCNSTRFEFIFTNLVPGSPRLFTSVMAVHRAYETSKMYRDFKLRSALIQNKQLRLLPQEHVYDKINGVWNLSSDQGNLGTFFITNVRIVWHANMNDSFNVSIPYLQIRSIKIRDSKFGLALVIESSQQSGGYVLGFKIDPVEKLQESVKEINSLHKVYSASPIFGVDYEMEEKPQPLEALTVEQIQDDVEIDSDGHTDAFVAYFADGNKQQDREPVFSEELGLAIEKLKDGFTLQGLWEVMS
partner: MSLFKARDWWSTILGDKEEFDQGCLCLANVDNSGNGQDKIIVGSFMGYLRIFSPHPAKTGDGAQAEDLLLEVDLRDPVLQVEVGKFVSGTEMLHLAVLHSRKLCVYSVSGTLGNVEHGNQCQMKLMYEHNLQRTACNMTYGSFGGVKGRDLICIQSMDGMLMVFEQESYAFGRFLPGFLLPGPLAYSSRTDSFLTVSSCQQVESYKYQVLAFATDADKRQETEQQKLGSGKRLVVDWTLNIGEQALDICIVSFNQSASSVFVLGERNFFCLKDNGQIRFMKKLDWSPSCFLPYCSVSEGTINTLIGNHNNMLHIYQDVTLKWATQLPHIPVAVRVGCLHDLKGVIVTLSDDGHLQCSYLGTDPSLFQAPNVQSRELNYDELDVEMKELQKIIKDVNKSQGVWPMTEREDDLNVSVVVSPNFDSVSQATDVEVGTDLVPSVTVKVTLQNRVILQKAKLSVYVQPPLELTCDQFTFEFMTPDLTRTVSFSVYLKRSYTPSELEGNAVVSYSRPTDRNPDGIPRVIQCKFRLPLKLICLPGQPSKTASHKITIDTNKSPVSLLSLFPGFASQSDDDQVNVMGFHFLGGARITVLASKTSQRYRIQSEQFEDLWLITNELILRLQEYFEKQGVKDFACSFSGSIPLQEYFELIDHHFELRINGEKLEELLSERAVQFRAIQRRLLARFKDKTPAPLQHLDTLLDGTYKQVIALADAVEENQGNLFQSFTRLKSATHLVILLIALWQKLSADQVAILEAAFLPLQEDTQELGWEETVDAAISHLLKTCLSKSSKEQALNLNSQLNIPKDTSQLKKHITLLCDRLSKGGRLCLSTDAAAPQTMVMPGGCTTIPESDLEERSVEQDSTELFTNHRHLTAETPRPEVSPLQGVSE

Variants of: B1
Details: with pthb1_human BBS9, Q3SYG4

| effect of a mutation on the interaction | Variant |
| --- | --- |
| with no effect | V160K |
| with no effect | V160A |
| with no effect | V160E |
| with no effect | M125A |
| with no effect | M125E |
| with no effect | M125K |
| with no effect | D139K |
| with no effect | D139A |
| with no effect | D139E |
| with no effect | P115K |
| with no effect | P115A |
| with no effect | P115E |
| with no effect | L146K |
| with no effect | L146A |
| with no effect | L146E |
| with no effect | Q174A |
| with no effect | R153E |
| with no effect | R153K |
| with no effect | R153A |
| with no effect | L154K |
| with no effect | L154A |
| with no effect | L154E |
| with no effect | D173A |
| with no effect | D173K |

| effect of a mutation on the interaction | Variant |
| --- | --- |
| with no effect | D173E |
| with no effect | F140A |
| with no effect | F140K |
| with no effect | F140E |
| with no effect | L113K |
| with no effect | L113A |
| with no effect | L113E |
| with no effect | V114E |
| with no effect | V114A |
| with no effect | V114K |
| with no effect | E158K |
| with no effect | E158A |
| with no effect | T111E |
| with no effect | T111K |
| with no effect | T111A |
| with no effect | F121E |
| with no effect | F121A |
| with no effect | F121K |
| with no effect | Y131E |
| with no effect | Y131K |
| with no effect | Y131A |
| with no effect | K141A |
| with no effect | K141E |
| with no effect | E132K |

| effect of a mutation on the interaction | Variant |
| --- | --- |
| with no effect | E132A |
| with no effect | F110K |
| with no effect | L152K |
| with no effect | L152E |
| with no effect | L152A |
| with no effect | Q157A |
| with no effect | Q157K |
| with no effect | Q157E |
| with no effect | T122A |
| with no effect | T122K |
| with no effect | T122E |
| with no effect | I164K |
| with no effect | I164A |
| with no effect | I164E |
| disrupting interaction strength | A145T |
| with no effect | A145E |
| with no effect | A145K |
| with no effect | I147A |
| with no effect | I147K |
| with no effect | I147E |
| with no effect | P118A |
| with no effect | P118K |
| with no effect | P118E |
| disrupting interaction strength | A130K |

| effect of a mutation on the interaction | Variant |
| --- | --- |
| with no effect | A130E |
| with no effect | K135E |
| with no effect | K135A |
| with no effect | S172E |
| with no effect | S172K |
| with no effect | S172A |
| with no effect | A126K |
| with no effect | A126E |
| with no effect | R138A |
| with no effect | R138K |
| with no effect | R138E |
| with no effect | S134A |
| with no effect | S134K |
| with no effect | S134E |
| with no effect | L155E |
| with no effect | L155K |
| with no effect | L155A |
| with no effect | N169E |
| with no effect | N169K |
| with no effect | N169A |
| with no effect | R119E |
| with no effect | R119K |
| with no effect | R119A |
| with no effect | Y137E |

| effect of a mutation on the interaction | Variant |
| --- | --- |
| with no effect | Y137A |
| with no effect | Y137K |
| with no effect | R129E |
| with no effect | R129K |
| with no effect | R129A |
| with no effect | L170A |
| with no effect | L170E |
| with no effect | L170K |
| with no effect | V127K |
| with no effect | V127E |
| with no effect | V127A |
| with no effect | G166E |
| with no effect | G166K |
| with no effect | G166A |
| with no effect | K163A |
| with no effect | K163E |
| disrupting interaction strength | V124K |
| with no effect | V124A |
| with no effect | V124E |
| with no effect | K150E |
| with no effect | K150A |
| with no effect | S117A |
| with no effect | S117K |
| with no effect | S117E |

| effect of a mutation on the interaction | Variant |
| --- | --- |
| with no effect | N165K |
| with no effect | N165A |
| with no effect | N165E |
| with no effect | V167A |
| with no effect | V167K |
| with no effect | V167E |
| with no effect | G116A |
| with no effect | G116E |
| with no effect | G116K |
| with no effect | Q151A |
| with no effect | Q151E |
| with no effect | Q151K |
| with no effect | Y161A |
| with no effect | Y161K |
| with no effect | Y161E |
| with no effect | M136K |
| with no effect | M136A |
| with no effect | M136E |
| with no effect | P156K |
| with no effect | P156E |
| with no effect | P156A |
| with no effect | T133E |
| with no effect | T133A |
| disrupting interaction strength | T133I |

| effect of a mutation on the interaction | Variant |
| --- | --- |
| with no effect | T133K |
| with no effect | H128A |
| with no effect | H128E |
| with no effect | H128K |
| with no effect | H159A |
| with no effect | H159K |
| with no effect | H159E |
| with no effect | S123A |
| disrupting interaction strength | S123F |
| with no effect | S123E |
| with no effect | S123K |
| with no effect | S171A |
| with no effect | S171E |
| with no effect | S171K |
| with no effect | N149K |
| with no effect | N149A |
| with no effect | N149E |
| with no effect | Q148K |
| with no effect | Q148A |
| with no effect | Q148E |
| with no effect | D162E |
| with no effect | D162K |
| with no effect | D162A |
| with no effect | L142K |

| effect of a mutation on the interaction | Variant |
| --- | --- |
| with no effect | L142E |
| with no effect | L142A |
| with no effect | L120A |
| with no effect | L120E |
| with no effect | L120K |
| with no effect | N112E |
| with no effect | N112K |
| with no effect | N112A |
| with no effect | W168K |
| with no effect | W168A |
| with no effect | W168E |
| with no effect | R143A |
| with no effect | R143E |
| with no effect | R143K |
| with no effect | S144K |
| with no effect | S144E |
| with no effect | S144A |
